In the supplement of paper PMC7877785:
± gives the uncertainty stated by the source.

Experiment: self-splicing fitness, log relative to wild type (ln ratio); higher = more splicing; Tetrahymena group I intron in knt gene, E. coli kanamycin selection, DiMSum; sequences stand for … in CUCUCU…GGAGGGAAAAGUUAUCAGGCAUGCACCUGGUAGCUAGUCUUUAAACCAAUAGAUUGCAUCGGUUUAAAAGGCAAGACCGUCAAAUUGCGGGAAAGGGGUCAACAGCCGUUCAGUACCAAGUCUCAGGGGAAACUUUGAGAUGGCCUUGCAAAGGGUAUGGUAAUAAGCUGACGGACAUGGUCCUAACCACGCAGCCAAGUCCUAAGUCAACAGAUCUUCUGUUGAUAUGGAUGCAGUUCACAGACUAAAUGUCGGUCGGGGAAGAUGUAUUCUUCUCAUAAGAUAUAGUCGGACCUCUCCUUAAUGGGAGCUAGCGGAUGAAGUGAUGCAACACUGGAGCCGCUGGGAACUAAUUUGUAUGCGAAAGUAUAUUGAUUAGUUUUGGAGUACUCGUGGUCG
Outline: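 DiMSum derived fitness as the error-weighted combination of fold changes across replicates, kanamycin versus no kanamycin, normalised to wild type. E. coli BL21(DE3) held the library, which randomised all eight P1ex-region intron nucleotides within the knt kanamycin-resistance gene on pET-22b(+). Six replicate transformations grew overnight at 37°C or 30°C on LB agar with or without 25 μg/mL kanamycin, also containing 100 μg/mL carbenicillin, 50 μM IPTG and 0.2% rhamnose, and pooled colonies were amplicon-sequenced on an Illumina HiSeq 2500.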

| Sequence | self-splicing fitness (ln) (30 °C) | self-splicing fitness (ln) (37 °C) |
| --- | --- | --- |
| CCAUAGCAAUAUUACGUAUU | -3.88 ± 0.19 | -2.64 ± 0.21 |
| ACUUAGCAAUAUUACGUGUG | -2.2 ± 0.09 | -1.06 ± 0.087 |
| AUUCAGCAAUAUUACGCUUU | -0.755 ± 0.055 | -0.787 ± 0.068 |
| CGAGAGCAAUAUUACGACGG | -0.704 ± 0.16 | -0.616 ± 0.18 |
| UCCUAGCAAUAUUACGCCAC | -1.72 ± 0.28 | -1.15 ± 0.27 |
| GGGUAGCAAUAUUACGAUUA | -0.341 ± 0.13 | -0.00462 ± 0.1 |
| UCUCAGCAAUAUUACGGAUU | -1.73 ± 0.097 | -1.15 ± 0.11 |
| UAUGAGCAAUAUUACGAUCA | -2.24 ± 0.16 | -1.27 ± 0.14 |
| AAACAGCAAUAUUACGCGCG | -1.2 ± 0.067 | -0.673 ± 0.081 |
| AUCGAGCAAUAUUACGGGUC | -3.91 ± 0.19 | -3.15 ± 0.18 |
| GGGAAGCAAUAUUACGACGA | -0.787 ± 0.093 | 0.0557 ± 0.11 |
| CGGCAGCAAUAUUACGUCUC | -1.24 ± 0.065 | -0.433 ± 0.086 |
| UGCGAGCAAUAUUACGCCUC | -2.78 ± 0.43 | – |
| AGAAAGCAAUAUUACGCACG | -0.407 ± 0.18 | -0.88 ± 0.22 |
| GGAGAGCAAUAUUACGGCUC | -1.76 ± 0.2 | -2.82 ± 0.34 |
| AGUUAGCAAUAUUACGGAUU | -1.32 ± 0.14 | -0.035 ± 0.16 |
| AUAAAGCAAUAUUACGUACU | 0.123 ± 0.081 | 0.445 ± 0.095 |
| GGGAAGCAAUAUUACGUGUC | -3.63 ± 0.24 | -2.28 ± 0.2 |
| GCAAAGCAAUAUUACGGGGU | -3.73 ± 0.15 | -2.5 ± 0.15 |
| CAGCAGCAAUAUUACGAGUG | -1.54 ± 0.056 | -0.155 ± 0.074 |
| GAUCAGCAAUAUUACGCCCG | -0.808 ± 0.25 | -0.447 ± 0.21 |
| AUUCAGCAAUAUUACGUUUU | -2.06 ± 0.09 | -0.724 ± 0.091 |
| GCAAAGCAAUAUUACGGGCU | -2.56 ± 0.12 | -2.45 ± 0.2 |
| GUUCAGCAAUAUUACGCAAA | -0.717 ± 0.17 | -0.625 ± 0.18 |

| Sequence | self-splicing fitness (ln) (30 °C) | self-splicing fitness (ln) (37 °C) |
| --- | --- | --- |
| AAUCAGCAAUAUUACGGGUU | -2.48 ± 0.12 | -2.02 ± 0.13 |
| UUUCAGCAAUAUUACGAUAG | -0.323 ± 0.088 | -0.323 ± 0.11 |
| AACAAGCAAUAUUACGCUGU | -3.38 ± 0.12 | -2.32 ± 0.13 |
| ACCAAGCAAUAUUACGACUG | -1.11 ± 0.062 | -1.07 ± 0.099 |
| AUGAAGCAAUAUUACGCAGA | -1.63 ± 0.12 | -0.868 ± 0.1 |
| GAUCAGCAAUAUUACGUUUU | -0.968 ± 0.058 | 0.149 ± 0.08 |
| UCUGAGCAAUAUUACGCAUA | -2.73 ± 0.17 | -1.19 ± 0.15 |
| CAGGAGCAAUAUUACGCAUG | -3.78 ± 0.28 | -1.89 ± 0.2 |
| AUGUAGCAAUAUUACGUCCC | -1.73 ± 0.17 | -1.02 ± 0.27 |
| GGCGAGCAAUAUUACGCCGU | -3.44 ± 0.47 | -1.28 ± 0.45 |
| CCUAAGCAAUAUUACGUACC | -4.63 ± 0.46 | -2.75 ± 0.31 |
| CCUAAGCAAUAUUACGGACU | -3.46 ± 0.35 | -2.29 ± 0.36 |
| GUAGAGCAAUAUUACGUCAC | -1.65 ± 0.1 | -1.06 ± 0.12 |
| UAUCAGCAAUAUUACGCGUC | -2.53 ± 0.11 | -0.926 ± 0.12 |
| AGGAAGCAAUAUUACGAGAG | -3.03 ± 0.14 | -2.29 ± 0.17 |
| GUCAAGCAAUAUUACGCACC | – | -0.99 ± 0.47 |
| GAAAAGCAAUAUUACGAUGC | -0.709 ± 0.08 | -0.503 ± 0.1 |
| CCCGAGCAAUAUUACGUUCA | -3 ± 0.16 | -2.99 ± 0.22 |
| UUGUAGCAAUAUUACGUACC | -2.08 ± 0.16 | -1.29 ± 0.17 |
| CCAAAGCAAUAUUACGCCCC | – | -0.985 ± 0.44 |
| AAAAAGCAAUAUUACGGAGC | -3.4 ± 0.2 | -2.1 ± 0.18 |
| GGCGAGCAAUAUUACGCUGG | -1.39 ± 0.36 | – |
| GCGUAGCAAUAUUACGCACU | -3.02 ± 0.24 | 0.255 ± 0.2 |
| GGUCAGCAAUAUUACGAGGC | -3.61 ± 0.3 | -2.84 ± 0.43 |
